From article PMC10968536

Legend:
[1] = tested on: HalTzlAGA (synthetic (no organism)); assay: fluorescence anisotropy; details: Fluorescence anisotropy: 100 nM FAM-TAR in TB buffer, 25 °C, 20 min, ex 480/em 518 nm, one-site fit; CD: 5 µM TAR with 50 µM nucleopeptide (Methods; abstract …)
[2] = tested on: HalTzlTCCCAG (synthetic (no organism)); assay: fluorescence anisotropy; details: Fluorescence anisotropy: 100 nM FAM-TAR in TB buffer, 25 °C, 20 min, ex 480/em 518 nm, one-site fit; CD: 5 µM TAR with 50 µM nucleopeptide (Methods; abstract …)

“CCAGAUCUGAGCCUGGGAGCUCUCUGG [5'-FAM(6)-TAR UCU]” was tested, and the Kd [1] was 256 µM and the Kd [2] was 38.3 µM.
